Data reported in paper PMC10620760, “Phosphorylation controls spatial and temporal activities of motor‐PRC1 complexes to complete mitosis” (The EMBO Journal, 2023).
Values belong to the binder of their own block, whether it stands above or below them. Ends that are not written are not given here.

B1: PRC1_(1–168) (domain or fragment, human, UniProt O43663 1-168, looked up)
chain: MRRSEVLAEESIVCLQKALNHLREIWELIGIPEDQRLQRTEVVKKHIKELLDMMIAEEESLKERLIKSISVCQKELNTLCSELHVEPFQEEGETTILQLEKDLRTQVELMRKQKKERKQELKLLQEQDQELCEILCMPHYDIDSASVPSLEELNQFRQHVTTLRETKA
notes: Dimer by SEC-MALS (52 ± 2.5 kDa measured); source: E. coli BL21-CodonPlus (DE3)-RIL, purified (HisTrap, SEC)

What was measured:
PRC1_(1–168) [1] = molecular target: T1, PRC1_(1–168) (human, UniProt O43663 1-168); experiment: ITC
T1 chain: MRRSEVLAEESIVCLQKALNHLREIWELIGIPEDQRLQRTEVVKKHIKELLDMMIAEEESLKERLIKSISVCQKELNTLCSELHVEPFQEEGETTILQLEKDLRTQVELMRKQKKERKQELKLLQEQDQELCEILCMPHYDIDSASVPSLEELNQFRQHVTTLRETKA

[2] = molecular target: GST‐CENP‐E_(2605–2701) 6SD (human, UniProt Q02224-1 2605-2701, S2639D | S2647D | S2649D (printed S2469D in Table 1; S2649 in the text) | …); experiment: ITC
[3] = molecular target: the molecule itself; experiment: SEC-MALS; 100 μl of 3.6 mg/ml PRC1(1-168) (152 μM) or 2.0 mg/ml PRC1(1-168) MEE (84 μM), Superdex-200 Increase 10/300 GL, 20 mM HEPES pH 7.4, 300 mM NaCl, 1 mM EDTA, 22°C
PRC1_(1–168) [4] = molecular target: B1; experiment: SEC; proteins mixed at equimolar (1:1) ratio, Superdex 200 Increase 10/300 GL, 20 mM HEPES pH 7.5, 300 mM NaCl, 1 mM EDTA, 1 mM DTT; fractions on Coomassie-stained SDS-PAGE; conditions: both partners purified
PRC1_(1–168) [5] = molecular target: B1; experiment: ITC; PRC1(1-168) titrated into the CENP-E construct or peptide in the cell, 25°C, 20 mM HEPES pH 7.5, 150 mM NaCl, 0.005% Tween-20, 0.5 mM TCEP; one set of sites; concentrations calculated for monomers; conditions: both partners purified
GFP‐PRC1 = molecular target: T2, GFP‐PRC1 (human, UniProt O43663 1-620); experiment: TIRF microscopy, recruitment to microtubules in vitro; GMPCPP-stabilized rhodamine microtubules mixed with 647GST-CENP-E(2639-2671) alone, GFP-PRC1 alone or both, held on coverslips by anti-tubulin antibodies; 80 mM PIPES pH 6.9, 5 mM MgCl2, 1 mM DTT, oxygen scavenger; conditions: both partners purified
T2 construct: protein regulator of cytokinesis 1 (PRC1), human; Purified recombinant GFP-PRC1 of the TIRF assay; probably full length
T2 sequence (looked up): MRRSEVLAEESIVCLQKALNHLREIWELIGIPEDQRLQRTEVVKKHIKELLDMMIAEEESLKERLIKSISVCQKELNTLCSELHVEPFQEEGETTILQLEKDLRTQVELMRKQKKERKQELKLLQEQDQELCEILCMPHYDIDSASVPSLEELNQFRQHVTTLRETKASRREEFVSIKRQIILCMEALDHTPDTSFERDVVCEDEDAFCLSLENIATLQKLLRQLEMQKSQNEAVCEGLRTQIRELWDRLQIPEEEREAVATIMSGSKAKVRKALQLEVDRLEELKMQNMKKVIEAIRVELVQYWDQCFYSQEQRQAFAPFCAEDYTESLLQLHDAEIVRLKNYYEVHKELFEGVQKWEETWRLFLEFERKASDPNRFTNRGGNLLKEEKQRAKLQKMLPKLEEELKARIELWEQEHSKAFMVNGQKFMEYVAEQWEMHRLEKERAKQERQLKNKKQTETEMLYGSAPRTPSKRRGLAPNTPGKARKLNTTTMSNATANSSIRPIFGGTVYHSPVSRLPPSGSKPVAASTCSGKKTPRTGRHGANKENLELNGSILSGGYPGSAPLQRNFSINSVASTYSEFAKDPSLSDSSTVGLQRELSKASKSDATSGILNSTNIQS

Kd (PRC1_(1–168) [1]): 64 µM
Binder: PVRYFDNSSLG [CENP‐E peptide 2]

Kd (PRC1_(1–168) [1]): 41.1 µM
Binder: PKSCFFDSRSK [CENP‐E peptide 1]

Binder: B1
Kd [2]: > 100 µM
stoichiometry N [3]: 2

binding result (PRC1_(1–168) [4]): binds
B2: GST‐Kif4A_(1133–1232) (domain or fragment, human, UniProt O95239 1133-1232, looked up)
chain: TQDSEGSFKLEDPTEVTPGLSFFNPVCATPNSKILKEMCDVEQVLSKKTPPAPSPFDLPELKHVATEYQENKAPGKKKKRALASNTSFFSGCSPIEEEAH
notes: also called pAG127; source: E. coli BL21-CodonPlus (DE3)-RIL, purified

B3: PRC1_(1–168) MEE (domain or fragment, human, UniProt O43663 1-168, looked up)
chain: MRRSEVLAEESIVCLQKALNHLREIWELIGIPEDQRLQRTEVVKKHIKELLDMAIAAAESLKERLIKSISVCQKELNTLCSELHVEPFQEEGETTILQLEKDLRTQVELMRKQKKERKQELKLLQEQDQELCEILCMPHYDIDSASVPSLEELNQFRQHVTTLRETKA
notes: Vector pET Duet 1; dimer by SEC-MALS; source: E. coli BL21-CodonPlus (DE3)-RIL, purified
stoichiometry N [3]: 2

Kd (PRC1_(1–168) [5]): 2.4 µM
B4: GST‐CENP‐E_(2605–2701) 2SD (domain or fragment, human, UniProt Q02224-1 2605-2701, looked up)
chain: SPKSPKVTGTASKKKQITPSQCKERNLQDPVPKEDPKSCFFDSRSKSLPDPHPVRYFDNSSLGLCPEVQNAGAESVDSQPGPWHASSGKDVPECKTQ
notes: also called pAG96; source: E. coli BL21-CodonPlus (DE3)-RIL, purified; not shown: GST, N-terminal, kept

binding result (GFP‐PRC1): binds
B5: 647GST‐CENP‐E_(2639–2671) (domain or fragment, human, UniProt Q02224-1 2639-2671, looked up)
chain: SPKSCFFDSRSKSLPSPHPVRYFDNSSLGLCPE
modifications: cysteine pairing not given here; also: Alexa Fluor 647 label, site not given here (degree of labelling ~1:3), GST fusion
notes: also called pAG118
